The source of these data is patent US20210079101A1 (LABORATOIRE FRANAIS DU FRACTIONNEMENT ET DES BIOTECHNOLOGIES, published 2021).

This assay deals with T1, Galectin-3 protein (human, UniProt P17931 2-250).
T1 construct: Endogenous antigen in human atheroma tissue sections; also called Gal3
As to the kind of experiment: double immunofluorescence staining of human endarteriectomy sections (colocalisation with anti-galectin-3 antibody). An excerpt:
FIG. 3: Immunofluorescent staining of human endarteriectomy sections and aortas of ApoE^{-/-} and WT mouse with P3 scFv-Fc or commercial control antibodies. (A) Double immunofluorescence staining of human endarteriectomy sections. […] Size bars: 50 μm. (B) Fluorescent macroscopy of P3 scFv-Fc after ex vivo injection in ApoE^{-/-} mouse and WT mouse. A human IgG was used as a negative control antibody.
Human tissue specimens were provided by Pr DUCASSE Eric, vascular surgeon at CHU Pellegrin. For immunofluorescence stainings, human sections were deparaffinised and rehydrated. After a retrieval step (pH9), slides were blocked with (1) PBS/1% BSA/0.2% Triton X10 followed by (2) 5% goat serum and (3) addition of goat anti human IgG H+L and Fcγ specific diluted at 100 μg/mL. Primary scFv-Fc produced in baculovirus or commercially available antibodies were added overnight at 4° C. Slides were incubated with scFv-Fc diluted at 50 μg/mL in PBS/1% BSA and, as controls, secondary antibody alone or commercial antibodies according to the manufacturer's instructions. […] After 1h incubation, slides were washed in PBS 3 times and mounted with Vectashield (VWR, France).

T1 sequence (P17931 2-250 limits assumed): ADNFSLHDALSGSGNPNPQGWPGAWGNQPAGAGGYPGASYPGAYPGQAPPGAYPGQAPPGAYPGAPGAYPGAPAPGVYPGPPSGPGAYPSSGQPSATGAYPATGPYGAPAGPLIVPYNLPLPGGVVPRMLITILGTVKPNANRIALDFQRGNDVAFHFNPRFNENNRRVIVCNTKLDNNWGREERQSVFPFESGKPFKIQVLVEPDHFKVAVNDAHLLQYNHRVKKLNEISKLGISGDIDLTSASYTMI

B1: P3 scFv-Fc (Fc fusion)
chain: QVQLQQSGPGLVKPSQTLSLTCAISGDSVSSNNFGWNWIRQSPSRGLEWLGRTYYRSKWYNDYAVSVRSRITINPDTSKNQFSLQLNSVTPEDTAVYYCARQGSTYFDYWGQGTLVTVSSEFGGGGSGGGGSGGGGSRDIVMTQSPSSLSASVGDRVTITCRASQTISSSLAWFQQRPGEAPNLLIYSASSLQSGVPSRFSGSGSGTDFTLTISSLQPEDFATYSCQQTYSAPPTFGGGTKLEIK
notes: these probably describe the HEK construct without the 2 extra cysteines; also called scFv-Fc P3; Human P3 scFv-Fc; not shown: human IgG1 Fc domain with 2 extra cysteine residues at the C-terminal end (baculovirus/Sf9 construct)
In the case of B1, the binding result is reported as “binds”.
